Measurements as given in patent publication US20140087995A1 (published 2014).
Numbered stars: 1 amine (or outer) side, 2 acyl side, 3 side chain; on linkers, the order of the positions; unused ones are H or OH. Bridge positions count the residues as written; N and C are the ends. Side chains are listed from the residue outwards. Ends that are not written are not given here. * marks the point of attachment. C20 diacid = O=C(O)CCCCCCCCCCCCCCCCCCC(=O)*; γGlu = O=C(O)[C@H](CCC(=O)[*:2])N[*:1]; AEEA = NCCOCCOCC(=O)O

T1: human amylin receptor (human, UniProt P30988 25-474; O60896 24-148, limits assumed)
T1 construct: whole, on cells; Used as cell membranes prepared from the Amylin 3(a)/CRE-luc BHK cells (Assay V); also called hAmylin-R; hAmylinR
T1 sequence (looked up) 1: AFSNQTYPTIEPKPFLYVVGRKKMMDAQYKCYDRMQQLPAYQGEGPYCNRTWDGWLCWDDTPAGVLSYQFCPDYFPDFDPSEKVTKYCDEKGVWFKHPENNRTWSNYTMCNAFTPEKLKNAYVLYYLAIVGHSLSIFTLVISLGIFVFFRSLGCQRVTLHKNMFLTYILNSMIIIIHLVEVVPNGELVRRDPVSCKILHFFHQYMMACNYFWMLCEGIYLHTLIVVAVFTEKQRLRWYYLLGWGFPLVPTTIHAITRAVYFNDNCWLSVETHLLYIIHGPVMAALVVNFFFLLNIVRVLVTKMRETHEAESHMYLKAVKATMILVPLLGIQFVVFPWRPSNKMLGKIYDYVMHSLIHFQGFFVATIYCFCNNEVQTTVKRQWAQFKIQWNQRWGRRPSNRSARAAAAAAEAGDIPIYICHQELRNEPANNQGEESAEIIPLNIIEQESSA
T1 sequence (looked up) 2: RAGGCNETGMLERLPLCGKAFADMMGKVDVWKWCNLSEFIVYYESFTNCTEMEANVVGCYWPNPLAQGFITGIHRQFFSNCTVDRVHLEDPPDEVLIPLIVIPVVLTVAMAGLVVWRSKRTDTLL


Biological target: T1, human amylin receptor
Experiment: SPA competition vs 125I-rat amylin, membranes of amylin 3(a) receptor BHK cells (Assay V)
Procedure, shortened: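 SPA beads with BHK Amylin 3(a)/CRE-luc cell membranes (35 ng/μL final) in 50 mM Hepes pH 7.4, 1 mM CaCl2, 5 mM MgCl₂, 0.1% OA, 0.02% Tween20.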

Binder	IC50 [nM]
{C20 diacid-γGlu}-GRCNTATCATQRLAHFLRHSSPNFGAIPSSTNVGPNTY-NH2 (disulfide 3-8; SMILES CC[C@H](C)[C@H](NC(=O)[C@H](C)NC(=O)CNC(=O)[C@H](Cc1ccccc1)NC(=O)[C@H](CC(N)=O)NC(=O)[C@@H]1CCCN1C(=O)[C@H](CO)NC(=O)[C@H](CO)NC(=O)[C@H](Cc1c[nH]cn1)NC(=O)[C@H](CCCNC(=N)N)NC(=O)[C@H](CC(C)C)NC(=O)[C@H](Cc1ccccc1)NC(=O)[C@H](Cc1c[nH]cn1)NC(=O)[C@H](C)NC(=O)[C@H](CC(C)C)NC(=O)[C@H](CCCNC(=N)N)NC(=O)[C@H](CCC(N)=O)NC(=O)[C@@H](NC(=O)[C@H](C)NC(=O)[C@@H]1CSSC[C@H](NC(=O)[C@H](CCCNC(=N)N)NC(=O)CNC(=O)CC[C@H](NC(=O)CCCCCCCCCCCCCCCCCCC(=O)O)C(=O)O)C(=O)N[C@@H](CC(N)=O)C(=O)N[C@@H]([C@@H](C)O)C(=O)N[C@@H](C)C(=O)N[C@@H]([C@@H](C)O)C(=O)N1)[C@@H](C)O)C(=O)N1CCC[C@H]1C(=O)N[C@@H](CO)C(=O)N[C@@H](CO)C(=O)N[C@H](C(=O)N[C@@H](CC(N)=O)C(=O)N[C@H](C(=O)NCC(=O)N1CCC[C@H]1C(=O)N[C@@H](CC(N)=O)C(=O)N[C@H](C(=O)N[C@@H](Cc1ccc(O)cc1)C(N)=O)[C@@H](C)O)C(C)C)[C@@H](C)O)	0.217
K([AEEA-γGlu-C20 diacid])RCNTATCATQRLANFLRHSSPNFGAIPSSTNVGSHTY-NH2 (disulfide 3-8; N-terminus assumed; SMILES CC[C@H](C)[C@H](NC(=O)[C@H](C)NC(=O)CNC(=O)[C@H](Cc1ccccc1)NC(=O)[C@H](CC(N)=O)NC(=O)[C@@H]1CCCN1C(=O)[C@H](CO)NC(=O)[C@H](CO)NC(=O)[C@H](Cc1c[nH]cn1)NC(=O)[C@H](CCCNC(=N)N)NC(=O)[C@H](CC(C)C)NC(=O)[C@H](Cc1ccccc1)NC(=O)[C@H](CC(N)=O)NC(=O)[C@H](C)NC(=O)[C@H](CC(C)C)NC(=O)[C@H](CCCNC(=N)N)NC(=O)[C@H](CCC(N)=O)NC(=O)[C@@H](NC(=O)[C@H](C)NC(=O)[C@@H]1CSSC[C@H](NC(=O)[C@H](CCCNC(=N)N)NC(=O)[C@@H](N)CCCCNC(=O)COCCOCCNC(=O)CC[C@H](NC(=O)CCCCCCCCCCCCCCCCCCC(=O)O)C(=O)O)C(=O)N[C@@H](CC(N)=O)C(=O)N[C@@H]([C@@H](C)O)C(=O)N[C@@H](C)C(=O)N[C@@H]([C@@H](C)O)C(=O)N1)[C@@H](C)O)C(=O)N1CCC[C@H]1C(=O)N[C@@H](CO)C(=O)N[C@@H](CO)C(=O)N[C@H](C(=O)N[C@@H](CC(N)=O)C(=O)N[C@H](C(=O)NCC(=O)N[C@@H](CO)C(=O)N[C@@H](Cc1c[nH]cn1)C(=O)N[C@H](C(=O)N[C@@H](Cc1ccc(O)cc1)C(N)=O)[C@@H](C)O)C(C)C)[C@@H](C)O, also called compound 45)	0.552
K([γGlu-C20 diacid])RCNTATCATQRLANFLRHSSPNFGAIPSSTNVGSHTY-NH2 (disulfide 3-8; N-terminus assumed; SMILES CC[C@H](C)[C@H](NC(=O)[C@H](C)NC(=O)CNC(=O)[C@H](Cc1ccccc1)NC(=O)[C@H](CC(N)=O)NC(=O)[C@@H]1CCCN1C(=O)[C@H](CO)NC(=O)[C@H](CO)NC(=O)[C@H](Cc1c[nH]cn1)NC(=O)[C@H](CCCNC(=N)N)NC(=O)[C@H](CC(C)C)NC(=O)[C@H](Cc1ccccc1)NC(=O)[C@H](CC(N)=O)NC(=O)[C@H](C)NC(=O)[C@H](CC(C)C)NC(=O)[C@H](CCCNC(=N)N)NC(=O)[C@H](CCC(N)=O)NC(=O)[C@@H](NC(=O)[C@H](C)NC(=O)[C@@H]1CSSC[C@H](NC(=O)[C@H](CCCNC(=N)N)NC(=O)[C@@H](N)CCCCNC(=O)CC[C@H](NC(=O)CCCCCCCCCCCCCCCCCCC(=O)O)C(=O)O)C(=O)N[C@@H](CC(N)=O)C(=O)N[C@@H]([C@@H](C)O)C(=O)N[C@@H](C)C(=O)N[C@@H]([C@@H](C)O)C(=O)N1)[C@@H](C)O)C(=O)N1CCC[C@H]1C(=O)N[C@@H](CO)C(=O)N[C@@H](CO)C(=O)N[C@H](C(=O)N[C@@H](CC(N)=O)C(=O)N[C@H](C(=O)NCC(=O)N[C@@H](CO)C(=O)N[C@@H](Cc1c[nH]cn1)C(=O)N[C@H](C(=O)N[C@@H](Cc1ccc(O)cc1)C(N)=O)[C@@H](C)O)C(C)C)[C@@H](C)O, also called compound 44)	0.275
